Laboratory results as given in patent CN109942708A (SHANGHAI KEQI PHARMACEUTICAL TECH CO LTD, dated 2019).
Where “and” joins values, the source holds several entries; their conditions need not be identical. Equal values may be shown once.

T1: CD38 (UniProt P28907 43-300)
T1 construct: Coated antigen in the specificity ELISA; also called CD38抗原
T1 sequence (looked up): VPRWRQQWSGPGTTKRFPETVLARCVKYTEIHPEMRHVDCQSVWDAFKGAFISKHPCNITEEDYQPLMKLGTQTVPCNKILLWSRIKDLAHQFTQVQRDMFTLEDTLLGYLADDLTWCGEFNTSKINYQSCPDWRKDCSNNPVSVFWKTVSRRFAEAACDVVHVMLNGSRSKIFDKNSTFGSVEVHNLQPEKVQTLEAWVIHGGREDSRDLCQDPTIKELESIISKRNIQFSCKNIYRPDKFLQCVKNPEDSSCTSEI

T2: CD138 (UniProt P18827 23-254, limits assumed)
T2 construct: Coated antigen in the specificity ELISA; also called CD138抗原
T2 sequence (looked up): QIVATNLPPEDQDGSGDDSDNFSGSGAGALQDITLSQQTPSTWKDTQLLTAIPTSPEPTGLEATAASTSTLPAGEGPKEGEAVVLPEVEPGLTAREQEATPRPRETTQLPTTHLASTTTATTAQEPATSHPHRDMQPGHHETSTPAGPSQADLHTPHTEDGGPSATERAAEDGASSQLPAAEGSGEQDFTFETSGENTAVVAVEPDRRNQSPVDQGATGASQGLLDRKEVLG

T3: BCMA抗原 (UniProt Q02223 1-54)
T3 construct: Recombinant BCMA antigen as immobilised on the Biacore chip and coated in the specificity ELISA; also called B细胞成熟抗原; B cell maturation antigen
T3 sequence (looked up): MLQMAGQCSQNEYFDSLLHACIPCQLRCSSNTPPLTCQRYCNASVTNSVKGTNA


Tests used:
[1] = biological target: BCMA-his抗原 (UniProt Q02223); assay: phage ELISA on coated BCMA-his, helper phage control
[2] = biological target: BCMA-his抗原 (UniProt Q02223); assay: as above; remark: listed apart in the source
[3] = biological target: BCMA-FC抗原 (UniProt Q02223); assay: phage ELISA on coated BCMA-FC, helper phage control
[4] = biological target: BCMA-FC抗原 (UniProt Q02223); assay: phage ELISA on coated BCMA-FC
[5] = biological target: T1, CD38; assay: ELISA on antigen coated at 10ug/mL
[6] = biological target: T2, CD138; assay: ELISA on antigen coated at 10ug/mL
[7] = biological target: T3, BCMA抗原; assay: SPR, Biacore T2000, BCMA amine-coupled to the chip, VHH injected, 25°C
[8] = biological target: BCMA-his抗原 (UniProt Q02223); assay: phage ELISA on coated BCMA-his

Row | OD450 [1] | OD450 [2] | OD450 [3] | OD450 [4] [OD450] | binding result [5] | binding result [6] | Kd [7] [nM] | OD450 [8] [OD450] | Molecule
1 | 0.85 OD450 and 0.631 OD450 | 2.36 OD450 and 2.38 OD450 | 0.518 OD450 and 0.332 OD450 | – | – | – | – | – | M13K07
2 | – | – | – | 2.96 | no binding | no binding | 2.14 | 2.33 | BCMA单域抗体B1 (VHH, FITC-labelled for flow cytometry; also called B1抗体) VHH: QVQLVESGGGLVQPGGSLRLSCTASGSILSIYAMGWYRQAPGKQRELVAAINISSNTFYRDSVKGRFTISRDNAENTVYLQMNSLKPEDTAVYYCNVAPWGDYDVKTDFGGWGQGTQVTVSS
3 | – | – | – | – | no binding | no binding | 0.32 | 2.76 | BCMA单域抗体B65 (VHH, FITC-labelled for flow cytometry; also called B65抗体) VHH: QLQLVESGGGLVQPGGSLRLSCAASGSISGIYAMGWYRQAPGKQRRLVAAITSGGDTFHADSVKGRFTISRDNAKNTMYLQMNSLKPEDTAVYYCNVAPWGDYDVRADFGSWGQGTQVTVSS
